Laboratory results as given in patent US20070256687A1, “Enhanced Medical Product” (priority 2004, published 2007).

Assay: Emitted dose of volumetrically dosed API/excipient mixtures delivered by a proprietary DPI
Format: physicochemical
Excerpt: In the course of developing methods and products according to the present invention different APIs were mixed with excipients in different ratios. The objectives were to find inter alia suitable formulations and methods of filling doses, but also to optimize inhaler techniques and interaction between inhaler and dose container. Table 1 below discloses some examples of volumetrically dosed mixtures API/excipient and the resulting emitted dose when delivered by a proprietary DPI. […] The objective was to find suitable excipients and to see how different mixing ratios affected the emitted dose. The mixtures were produced under laboratory conditions in small quantities and remained quasi-stable under the run of tests. The emitted dose as percentage of total recovered dose was measured and the results were used in the development of the current invention.

[1] = excipient Mannitole, ratio API/excipient 50/50, proprietary DPI
[2] = excipient Respitose®, ratio API/excipient 20/80, proprietary DPI

insulin [Micronized insulin]
Emitted Dose in % of recovered dose [1]: 83 % of recovered dose | Retention in % of recovered dose [1]: 17 % of recovered dose | Emitted Dose in % of recovered dose [2]: 93 % of recovered dose | Retention in % of recovered dose [2]: 7 % of recovered dose
